In PMC13436963 one finds ratio to parent data, which are given here for two variants.

First the molecules themselves.
B1: Drosophila Notch LNR domain fused to split firefly luciferase fragments (LNR–NLuc and LNR–CLuc) [Drosophila melanogaster] / Drosophila Notch LNR domain fused to split firefly luciferase fragments (LNR–NLuc and LNR–CLuc) … (parent)
chain 1: GSGNDRYAADLEQQRAMCDKRGCTEKQGNGICDSDCNTYACNFDGNDCSLGINPWANCTANECWNKFKNGKCNEECNNAACHYDGHDCERKLKSCDSLFDAYCQKHYGDGFCDYGCNNAECSWDGLDCENKTQSPV
chain 2: B1 chain 1

In this assay the parent is B1. Description: split-luciferase complementation assay. The settings on record: with Drosophila Notch LNR domain fused to split firefly luciferase fragments (LNR–NLuc and LNR–CLuc) [Drosophila melanogaster], S2 cells, n=5, parent: 1, read off a plot.

For chain 1 GSGNDRYAADLEQQRAMCDKRGCTEKQGNGICDSDCNTYACNFDGNDCSLGINPWANCTANECWNKFKNGKCNEECNNAACHYDGHDCERKLKSCDSLFDAYCQKAYGDGFCDYGCNNAECSWDGLDCENKTQSPV [chain 1 H106A], the ratio to parent (bar labelled 'H1570A + WT' (N-Luc / C-Luc)) worked out at 1 and the ratio to parent (bar labelled 'WT + H1570A' (N-Luc / C-Luc)) is 0.94.

Turning to chain 1 GSGNDRYAADLEQQRAMCDKRGCTEKQGNGICDSDCNTYACNFDGNDCSLGINPWANCTANECWNKFKNGKCNEECNNAACHYDGHDCERKLKSCDSLADAYCQKHYGDGFCDYGCNNAECSWDGLDCENKTQSPV [chain 1 F99A], the ratio to parent by setting is: (bar labelled 'F1563A + WT' (N-Luc / C-Luc)) 0.97; (bar labelled 'WT + F1563A' (N-Luc / C-Luc)) 1.1.
